Test results reported in patent US11214614B2, “LTBP complex-specific inhibitors of TGFβ and uses thereof” (Scholar Rock, Inc., priority 2019, dated 2022).
Numbering of substitutions follows the chain as printed.

B1: SR-AB63: cycle 3 antibody, lineage SR-AB26; CDRs SEQ ID NO: 292-297; HCVR SEQ ID NO: 360, LCVR SEQ ID NO: 361 (antibody, V domains shown)
VH: QLQLQESGPGLVKPSETLSLTCTVSGGSIRSSSYYWGWIRQPPGKGLEWIGSISYSATTYYNPSLKSRVTISVDTSKNQFSLKLSSVTAADTAVYYCAGDPSYDSIAGMQVWGQGTTVTVSS
VL: DIQLTQSPSSLSASVGDRVTITCRASQSISSYLNWYQQKPGKAPKLLIYAASNLQSGVPSRFSGSGSGTDFTLTISSLQPEDFATYYCQQSFDWPLTFGGGTKVEIK
B2: SR-AB42: cycle 3 antibody, lineage SR-AB23; CDRs SEQ ID NO: 166-171; HCVR SEQ ID NO: 318, LCVR SEQ ID NO: 319 (antibody, V domains shown)
VH: QVQLVESGGGVVQPGRSLRLSCAASGFTFRSYVMHWVRQAPGKGLEWVAVISHEGSLKYYADSVKGRFTISRDNSKNTLYLQMNSLRAEDTAVYYCARPRIAARRGGFGYWGQGTLVTVSS
VL: NFMLTQPHSVSESPGKTVTISCTRSSGNIDNNYVQWYQQRPGSSPTTVIYEDNQRPSGVPDRFSGSIDSSSNSASLTISGLKTEDEADYYCQSYDYDTQGVVFGGGTKLTVL
B3: SR-AB23: second-round (CDR-H3 mutagenesis) antibody, lineage SR-AB14; CDRs SEQ ID NO: 116-121 (antibody, V domains shown)
VH: B2 VH
VL: B2 VL with Y96S, T98N
B4: SR-AB22: second-round (CDR-H3 mutagenesis) antibody, lineage SR-AB14; CDRs SEQ ID NO: 108-113 (antibody, V domains shown)
VH: B2 VH with R98V
VL: B2 VL with Y96S, T98N

What was measured:
Assay in all cases: Octet (BLI) binding, IgG captured on AHC tips, antigen at 100 nM
[1] = target: huGARP proTGFβ1 (Homo sapiens, UniProt P01137); settings: for ForteBio IgG KD Hu GARP-proTGFβ1 (M) Avid: IgG1-agly, 1:1 fit; for ForteBio IgG KD Hu GARP-proTGFβ1 in solution (M) Avid: Table 10, same assay conditions as Table 9
Chain of huGARP proTGFβ1 (P01137 30-390): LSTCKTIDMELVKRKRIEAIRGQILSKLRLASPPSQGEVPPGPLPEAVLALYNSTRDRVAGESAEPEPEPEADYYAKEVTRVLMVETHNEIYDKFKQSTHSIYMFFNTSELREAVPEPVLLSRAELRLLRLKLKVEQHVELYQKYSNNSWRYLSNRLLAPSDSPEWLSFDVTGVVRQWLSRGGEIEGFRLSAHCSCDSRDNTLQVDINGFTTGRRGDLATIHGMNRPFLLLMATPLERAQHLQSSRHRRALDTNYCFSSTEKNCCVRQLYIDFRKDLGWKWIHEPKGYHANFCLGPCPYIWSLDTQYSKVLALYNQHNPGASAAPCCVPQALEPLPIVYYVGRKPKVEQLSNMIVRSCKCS
Chain of huGARP proTGFβ1 (Q14392 18-627 partner limits assumed): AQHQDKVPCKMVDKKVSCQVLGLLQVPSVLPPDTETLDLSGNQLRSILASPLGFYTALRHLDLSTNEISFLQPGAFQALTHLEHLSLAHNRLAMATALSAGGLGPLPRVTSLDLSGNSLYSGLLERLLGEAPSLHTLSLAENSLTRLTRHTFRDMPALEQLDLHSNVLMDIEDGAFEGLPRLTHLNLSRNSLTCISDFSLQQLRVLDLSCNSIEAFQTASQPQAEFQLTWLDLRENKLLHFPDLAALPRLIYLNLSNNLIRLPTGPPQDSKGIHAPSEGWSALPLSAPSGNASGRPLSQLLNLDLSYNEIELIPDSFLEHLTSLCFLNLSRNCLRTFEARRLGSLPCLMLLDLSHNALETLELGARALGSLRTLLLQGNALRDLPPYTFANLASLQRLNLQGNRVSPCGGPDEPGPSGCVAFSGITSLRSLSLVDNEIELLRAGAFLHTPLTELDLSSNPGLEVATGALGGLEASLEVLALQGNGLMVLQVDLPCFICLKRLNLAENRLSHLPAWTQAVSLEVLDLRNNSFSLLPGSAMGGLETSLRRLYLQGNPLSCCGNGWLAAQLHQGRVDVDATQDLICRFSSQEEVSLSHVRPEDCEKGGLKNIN
Procedure, shortened: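 Antibody loaded at 1 μg/mL onto anti-human Fc capture biosensors, then exposed to human GARP-proTGFβ1 at 100 nM in 1× kinetics buffer with 1000 rpm shaking. Association 3 min, dissociation 3 or 5 min; KD from 1:1 local full fit.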

[2] = target: huLTBP1 proTGFβ1 (Homo sapiens, UniProt P01137+Q14766); settings: for Hu LTBP1-proTGFβ1 Kon / Hu LTBP1-proTGFβ1 Koff: Table 9, cycle 3; for Hu LTBP1-proTGFβ1 Kon / Hu LTBP1-proTGFβ1 Koff / Affinity for human LTBP1 complexed with proTGFβ1: IgG1-agly; for Hu LTBP1-proTGFβ1 Kon: 1:1 fit; for Hu LTBP1-proTGFβ1 Koff: 5-minute dissociation; for Response, binding to human LTBP-1 proTGFb1: Octet, antibody immobilized (loading sample); for Affinity for human LTBP1 complexed with proTGFβ1: Table 8, Octet
Chain of huLTBP1 proTGFβ1 (P01137 30-390): as the sequence (P01137 30-390) above
Chain of huLTBP1 proTGFβ1 (Q14766 347-1721 limits assumed): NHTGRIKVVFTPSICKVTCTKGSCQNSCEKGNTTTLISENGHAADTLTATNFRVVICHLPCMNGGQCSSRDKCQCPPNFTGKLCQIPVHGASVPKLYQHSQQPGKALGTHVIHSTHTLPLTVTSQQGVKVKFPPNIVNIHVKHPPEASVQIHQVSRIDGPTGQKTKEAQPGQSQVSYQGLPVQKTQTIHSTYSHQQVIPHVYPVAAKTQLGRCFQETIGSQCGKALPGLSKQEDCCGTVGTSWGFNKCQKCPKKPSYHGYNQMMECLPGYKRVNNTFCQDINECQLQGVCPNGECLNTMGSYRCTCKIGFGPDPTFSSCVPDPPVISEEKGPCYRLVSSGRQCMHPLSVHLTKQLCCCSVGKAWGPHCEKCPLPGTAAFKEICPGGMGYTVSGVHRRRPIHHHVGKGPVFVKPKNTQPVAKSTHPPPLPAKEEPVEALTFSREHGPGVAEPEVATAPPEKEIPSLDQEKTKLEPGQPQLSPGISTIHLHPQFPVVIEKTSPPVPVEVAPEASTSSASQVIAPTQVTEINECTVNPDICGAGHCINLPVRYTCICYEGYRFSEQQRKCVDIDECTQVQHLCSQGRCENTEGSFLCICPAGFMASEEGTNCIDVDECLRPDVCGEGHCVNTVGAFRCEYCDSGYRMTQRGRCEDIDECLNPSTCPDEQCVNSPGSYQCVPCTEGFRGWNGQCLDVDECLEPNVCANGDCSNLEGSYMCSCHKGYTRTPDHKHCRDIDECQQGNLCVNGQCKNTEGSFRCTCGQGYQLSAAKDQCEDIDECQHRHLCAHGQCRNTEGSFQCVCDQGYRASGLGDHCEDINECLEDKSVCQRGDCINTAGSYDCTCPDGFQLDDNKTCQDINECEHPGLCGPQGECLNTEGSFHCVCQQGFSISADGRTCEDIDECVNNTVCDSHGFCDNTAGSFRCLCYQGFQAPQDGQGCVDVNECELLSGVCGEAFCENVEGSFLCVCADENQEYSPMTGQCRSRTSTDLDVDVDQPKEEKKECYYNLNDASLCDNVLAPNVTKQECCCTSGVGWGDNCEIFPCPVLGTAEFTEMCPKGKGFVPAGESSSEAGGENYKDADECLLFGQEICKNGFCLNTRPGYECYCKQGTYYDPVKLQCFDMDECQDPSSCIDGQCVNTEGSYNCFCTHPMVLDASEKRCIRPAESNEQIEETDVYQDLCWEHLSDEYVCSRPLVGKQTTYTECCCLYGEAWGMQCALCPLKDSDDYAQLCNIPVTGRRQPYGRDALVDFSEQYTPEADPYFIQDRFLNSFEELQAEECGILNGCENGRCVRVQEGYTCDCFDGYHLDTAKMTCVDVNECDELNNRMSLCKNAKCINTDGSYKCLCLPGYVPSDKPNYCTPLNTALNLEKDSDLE
Procedure, shortened: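 Antibodies were captured on anti-human Fc biosensors at 1 μg/mL (~7 nM), to a maximum response of 1 nm. Antigen complex was run at a single 100 nM in 1× kinetics buffer, shaking at 1000 rpm. Association was 3 min and dissociation 3 min (5 min in later rounds), with KD from a local, full 1:1 fit.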

[3] = target: huLTBP3 proTGFβ1 (Homo sapiens, UniProt P01137+Q9NS15); settings: IgG1-agly; for Hu LTBP3-proTGFβ1 Kon / Hu LTBP3-proTGFβ1 Koff: Table 9, cycle 3; for Hu LTBP3-proTGFβ1 Koff: 5-minute dissociation; for Affinity for human LTBP3 complexed with proTGFβ1: Table 8, Octet
Chain of huLTBP3 proTGFβ1 (P01137 30-390): as the sequence (P01137 30-390) above
Chain of huLTBP3 proTGFβ1 (Q9NS15 44-1303): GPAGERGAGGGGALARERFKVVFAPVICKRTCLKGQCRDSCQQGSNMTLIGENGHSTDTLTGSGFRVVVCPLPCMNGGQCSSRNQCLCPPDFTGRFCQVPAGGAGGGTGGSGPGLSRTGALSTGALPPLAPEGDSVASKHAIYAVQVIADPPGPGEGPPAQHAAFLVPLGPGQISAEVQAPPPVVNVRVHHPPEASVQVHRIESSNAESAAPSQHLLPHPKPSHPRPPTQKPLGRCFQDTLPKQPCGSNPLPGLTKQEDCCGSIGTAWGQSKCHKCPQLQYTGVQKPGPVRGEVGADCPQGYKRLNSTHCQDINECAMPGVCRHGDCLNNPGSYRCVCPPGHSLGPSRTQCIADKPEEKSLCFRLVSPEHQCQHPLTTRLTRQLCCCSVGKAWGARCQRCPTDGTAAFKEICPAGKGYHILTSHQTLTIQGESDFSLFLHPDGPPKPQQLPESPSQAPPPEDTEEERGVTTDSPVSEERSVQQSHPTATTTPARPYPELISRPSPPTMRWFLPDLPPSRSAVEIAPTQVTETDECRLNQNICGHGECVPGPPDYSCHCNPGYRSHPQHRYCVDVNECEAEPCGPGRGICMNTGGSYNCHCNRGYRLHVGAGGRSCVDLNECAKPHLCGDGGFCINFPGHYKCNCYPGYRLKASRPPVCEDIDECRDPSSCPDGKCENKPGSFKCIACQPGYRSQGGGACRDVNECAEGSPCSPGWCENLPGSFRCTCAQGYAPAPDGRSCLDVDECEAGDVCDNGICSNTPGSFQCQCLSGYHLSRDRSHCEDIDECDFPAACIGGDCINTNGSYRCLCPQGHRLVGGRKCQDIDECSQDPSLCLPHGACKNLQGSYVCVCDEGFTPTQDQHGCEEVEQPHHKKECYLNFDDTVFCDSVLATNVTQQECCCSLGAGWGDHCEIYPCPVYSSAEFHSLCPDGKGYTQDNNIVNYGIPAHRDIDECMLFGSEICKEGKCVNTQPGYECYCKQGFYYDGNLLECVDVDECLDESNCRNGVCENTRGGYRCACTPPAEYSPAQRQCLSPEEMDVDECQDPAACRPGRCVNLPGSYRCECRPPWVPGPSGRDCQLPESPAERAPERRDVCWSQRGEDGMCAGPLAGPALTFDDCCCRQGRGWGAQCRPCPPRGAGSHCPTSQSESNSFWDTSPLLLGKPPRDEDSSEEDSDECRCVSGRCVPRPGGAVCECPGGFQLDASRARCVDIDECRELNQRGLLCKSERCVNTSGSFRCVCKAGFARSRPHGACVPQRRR
Procedure, shortened: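 Antibodies loaded at 1 μg/mL onto anti-human Fc sensors were exposed to each TGFβ1 complex at 100 nM in kinetics buffer. Association ran 3 min; dissociation was 3 min in one protocol and 5 min in another. KD came from a 1:1 fitting model.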

[4] = Table 9, cycle 3, N.B. = non-binder under conditions of this assay
[5] = N.B. = non-binder under conditions of this assay
[6] = Table 8, P.F. = Poor Fit, N.B. = Non-binder under conditions of this assay

Molecule | ForteBio IgG KD Hu GARP-proTGFβ1 (M) Avid [1, 4] | ForteBio IgG KD Hu GARP-proTGFβ1 in solution (M) Avid [1, 5] | Hu LTBP1-proTGFβ1 Kon [2] [M⁻¹ s⁻¹] | Hu LTBP1-proTGFβ1 Koff [2] [s⁻¹] | Hu LTBP3-proTGFβ1 Kon ([3]; 1:1 fit) [M⁻¹ s⁻¹] | Hu LTBP3-proTGFβ1 Koff [3] [s⁻¹] | ForteBio IgG KD Hu GARP-proTGFβ1 (M) Avid [1, 6] | Response, binding to human LTBP-1 proTGFb1 [2] [nm] | Affinity for human LTBP1 complexed with proTGFβ1 [2] | Affinity for human LTBP3 complexed with proTGFβ1 [3] | ForteBio IgG KD Hu LTBP3-proTGFβ1 (M) Avid ([3]; Table 8, 1:1 fit, P.F. = Poor Fit, N.B. = Non-binder under conditions of this assay)
B1 | N.B. | N.B. | 118000 | 7.24e-05 | 159000 | 7.84e-05 |  |  |  |  | 
B2 | N.B. | N.B. | 154000 | 6e-05 | 232000 | 6e-05 |  |  |  |  | 
B3 |  |  |  |  |  |  | N.B. | 0.3449 | single digit nM | single digit nM | 
B4 |  |  |  |  |  |  | P.F. | 0.4317 | single digit nM | single digit nM | P.F.
